# Assay results: US20120121579A1, “TREATMENT OF ONCOSTATIN M RECEPTOR BETA MEDIATED HEART FAILURE” (MAX-PLANCK-GESELLSCHAFT ZUR FORDERUNG DER WISSENSCHAFTEN …, priority 2009, published 2012)
# “Also recorded” adds a separate entry of the source.
# B1: 11-6: interleukin-6, recombinant mouse cytokine (protein, UniProt P08505 25-211, looked up)
# Interleukin-6: FPTSQVRRGDFTEDTTPNRPVYTTSQVGGLITHVLWEIVEMRKELCNGNSDCMNNDDALAENNLKLPEIQRNDGCYQTGYNQEICLLKISSGLLEYHSYLEYMKNNLKDNKKDKARVLQRDTETLIHIFNQEVKDLHKIVLPTPISNALLTDKLESQKEWLRTKTIQFILKSLEEFLKVTLRSTRQT
# B2: OSM: mouse oncostatin M, recombinant cytokine obtained from Sigma (protein)
# chain: ANRGCSNSSSQLLSQLQNQANLTGNTESLLEPYIRLQNLNTPDLRAACTQHSVAFPSEDTLRQLSKPHFLSTVYTTLDRVLYQLDALRQKFLKTPAFPKLDSARHNILGIRNNVFCMARLLNHSLEIPEPTQTDSGASRSTTTPDVFNTKIGSCGFLWGYHRFMGSVGRVFREWDDGSTRSRR
# B3: cardiotrophin: recombinant mouse cytokine of the interleukin-6 class (protein, UniProt Q60753 1-203, looked up)
# Cardiotrophin-1: MSQREGSLEDHQTDSSISFLPHLEAKIRQTHNLARLLTKYAEQLLEEYVQQQGEPFGLPGFSPPRLPLAGLSGPAPSHAGLPVSERLRQDAAALSVLPALLDAVRRRQAELNPRAPRLLRSLEDAARQVRALGAAVETVLAALGAAARGPGPEPVTVATLFTANSTAGIFSAKVLGFHVCGLYGEWVSRTEGDLGQLVPGGVA
# Key:
# [1] = test system: OSM treated cardiomyocytes; assay: Inhibition of OSM-induced FGP in cultured cardiomyocytes (Western blot of 95 kDa B-Raf, α-SM actin, destrin, secreted ANP); assay type: cell-based, rat; details: after 10 days of OSM
# Protocol: (§1) MCP-1 transgenic animals, intraperitoneally injection of oncostatin M and culture of adult cardiomyocytes. The generation of transgenic mice (from FVB/N mice) with cardiac restricted overexpression of monocyte chemotactic protein-1 has been previously described (Kolattukudy et al. 1998). 6 months old FVB mice were injected intraperitoneally twice daily with a volume of 0.2 ml of phosphate buffered saline containing 5% fetal calf serum without (CON) or with 60 ng oncostatin M (OSM) per gram of animal for fourteen days. Ventricular cardiac myocytes of 6-mo-old rats were isolated as previously described (Kubin et al. 1999). Myocytes were plated at a density of 1.5×10^4 cells/cm^2 on laminin-coated (10 μg/ml; Sigma) chamber slides or 6 well dishes (Nunc) in basic medium. Myocytes were allowed to recover for 2 days in 2% fetal calf serum (FCS). Thereafter, basic medium, FCS, 50 ng/ml insulin-like growth factor-1 or 20 ng/ml of cytokines were added as indicated. Media were replaced every other day. UO126 (Cell Signaling Technology) was added 1 h prior to stimulation. All experiments were performed in duplicate and constantly treated with 10 μM 1-(β-D-arabinofuranosyl)cytosine to prevent nonmyocyte growth. […]
# (§2) Preparation of Protein Extracts and Western Blot Analysis. […] Immunoreactive proteins were visualized on the VersaDoc (BioRad) and analyzed using the QuantityOne software (BioRad).
# [2] = test system: cardiomyocytes; assay: Morphology of cultured adult cardiomyocytes: lengthening, sarcomeres, α-SM actin, cell growth (phase contrast, immunostaining); assay type: cell-based, rat; details: for inhibition of OSM-induced cell lengthening: OSM-stimulated cardiomyocytes, serum-free
# Protocol: (§3) MCP-1 transgenic animals, intraperitoneally injection of oncostatin M and culture of adult cardiomyocytes. The generation of transgenic mice (from FVB/N mice) with cardiac restricted overexpression of monocyte chemotactic protein-1 has been previously described (Kolattukudy et al. 1998). 6 months old FVB mice were injected intraperitoneally twice daily with a volume of 0.2 ml of phosphate buffered saline containing 5% fetal calf serum without (CON) or with 60 ng oncostatin M (OSM) per gram of animal for fourteen days. Ventricular cardiac myocytes of 6-mo-old rats were isolated as previously described (Kubin et al. 1999). Myocytes were plated at a density of 1.5×10^4 cells/cm^2 on laminin-coated (10 μg/ml; Sigma) chamber slides or 6 well dishes (Nunc) in basic medium. Myocytes were allowed to recover for 2 days in 2% fetal calf serum (FCS). Thereafter, basic medium, FCS, 50 ng/ml insulin-like growth factor-1 or 20 ng/ml of cytokines were added as indicated. Media were replaced every other day. UO126 (Cell Signaling Technology) was added 1 h prior to stimulation. All experiments were performed in duplicate and constantly treated with 10 μM 1-(β-D-arabinofuranosyl)cytosine to prevent nonmyocyte growth. Determination of secreted ANP by Western Blot was performed after ultrafiltration (Millipore).
# (§4) Phase-contrast micrographs, immunocytochemistry and fluorescence microscopy. Phase-contrast micrographs were taken with a 20× lens. For immunocytochemistry and fluorescence microscopy samples were processed as previously described (Kubin et al. 1999).
# [3] = test system: Erk1/2; assay: OSM-induced Erk1/2 activation in cultured cardiomyocytes (Western blot); assay type: cell-based, rat; details: after 10 minutes of OSM
# Protocol: as §1, §2
# [4] = test system: cardiomyocytes; assay: Cytokine-induced FGP / dedifferentiation markers in cultured adult cardiomyocytes (Western blot); assay type: cell-based, rat; details: 20 ng/ml of cytokines, 10d of serum-free culture
# Protocol: as §3
# (§5) Preparation of Protein Extracts and Western Blot Analysis. Tissue Samples were Sonicated in Lysis buffer (0.1M Tris-HCl, 10% sodium dodecylsulfate (SDS), 10 mM ethylenediamine tetraacetic acid, 40 mM dithiothreitol (DTT); pH 8.0) containing inhibitors as previously described (Vogel et al. 2006). Cultures were washed twice with PBS and harvested by scraping in lysis buffer. After heating for 1 minute at 99° C. debris was removed by centrifugation for 2 min at 14000 g. Twenty micrograms of protein extracts were separated on 4%-12% SDS-PAGE gradient gels and processed as previously described (Vogel et al. 2006). Immunoreactive proteins were visualized on the VersaDoc (BioRad) and analyzed using the QuantityOne software (BioRad).
# [5] = test system: gp130/Raf/Erk axis; assay: Intraperitoneal oncostatin M treatment of mice, Western blot and immunostaining of cardiac tissue; assay type: in vivo, mouse
# Protocol: as §3, §5, §4
# [6] = 60 ng OSM per gram i.p. twice daily for fourteen days
molecule,measurement,setting,value
N#CC(=C(/N)Sc1ccccc1N)/C(C#N)=C(/N)Sc1ccccc1N [UO126],"inhibition of OSM-induced re-expression of α-SM actin, the 95 kDa B-Raf and destrin (FGP)",[1],"complete inhibition of the reexpression; also recorded: loss of re-expression of α-SM actin, the 95 kDa B-Raf and destrin; also recorded: abolishment of cell lengthening, the reexpression of ANP, α-SM actin and the 95 kDa B-Raf isoform"
same,secretion of ANP by OSM-treated cardiomyocytes,[1],loss of secreted atrial natriuretic peptide; also recorded: reduced secretion of ANP
same,inhibition of OSM-induced cell lengthening,[2]; 8 days,completely abolished OSM-induced lengthening; also recorded: abolishment of cell lengthening
same,inhibition of OSM-induced cell lengthening,"[2]; 8 days, listed as UO",abolishes this effect
same,inhibition of OSM-induced Erk1/2 activation (phosphorylation),[3],abolished the activation of Erk1/2; also recorded: inhibition of Erk1/2 activation
"MCP-1: monocyte chemotactic protein-1, recombinant mouse protein","induction of FGP / dedifferentiation (re-expression of the 95 kDa B-Raf, α-SM actin and destrin)",[4],neither TNF-α nor MCP-1 induced FGP
TNF-α,"induction of FGP / dedifferentiation (re-expression of the 95 kDa B-Raf, α-SM actin and destrin)",[4],neither TNF-α nor MCP-1 induced FGP
B1,"induction of FGP / dedifferentiation (re-expression of the 95 kDa B-Raf, α-SM actin and destrin)",[4],only a limited capacity to induce dedifferentiation
B2,"induction of FGP / dedifferentiation (re-expression of the 95 kDa B-Raf, α-SM actin and destrin)",[4],induces more potently FGP than LIF
same,re-expression of α-SM actin (immunostaining),"[2]; 2% serum, 12 days",massive re-expression of α-SM actin throughout the myocyte
same,loss of sarcomeres,"[2]; 2% serum, 12 days, versus 2% serum treated controls",massive loss of sarcomeres
same,remodelling of cardiomyocytes (cell lengthening),"[2]; absence of serum, 8 days",remodelling of cardiomyocytes primarily visible in cell lengthening
same,P-Erk1/2 in cardiac tissue,[5]; [6],Moderate increases
same,amounts of B-Raf isoforms in cardiac tissue,[5]; [6],increased amounts of all B-Raf isoforms
same,level of LIF in cardiac tissue,[5]; [6],did not change; also recorded: No changes
same,"level of α-SM actin, destrin and ANP in myocardial tissue",[5]; [6],increased level
same,phosphorylation level of the serine residue 782 of gp130,[5]; [6],significant increases
same,amount of OSMRβ in cardiac tissue,"[5]; 60 ng OSM per gram i.p. twice daily for fourteen days, 6 months old mice",significant increases
same,heart failure phenotype after injection into mice,[5]; injection of OSM into mice,resulted into the heart failure phenotype of DCM
B3,"induction of FGP / dedifferentiation (re-expression of the 95 kDa B-Raf, α-SM actin and destrin)",[4],only a limited capacity to induce dedifferentiation
